Results published in US6846636B1, “Methods and compositions for HDL holoparticle uptake receptor” (American National Red Cross, priority 1998, dated 2005).
“Also recorded” adds a separate entry of the source.

Tests used:
[1] = test system: RA/Bt2cAMP-treated F9 cells; assay: DiI-HDL uptake by laser scanning confocal fluorescence microscopy; format: cell-based, mouse; conditions: DiI-HDL 1 μg/ml, 2-4 h at 37° C., LDL 40 μg/ml, RAP 1 μM
Experimental: Cells were plated into gelatin-coated wells of 8-well plastic chamber slides (Nalge Nunc, Naperville, Ill.) (4×10^4 cells/cm^2) and incubated at 37° C., 5% CO2 for 2 hours. The cells were washed with serum-free DMEM and incubated in serum-free DMEM containing ITS (insulin 5 μg/ml, transferrin 5 μg/ml, sodium selenite 5 ng/ml, Boehringer Mannheim, Germany), penicillin, and streptomycin for 18 hours at 37° C., 5% CO2. Prior to addition of DiI-HDL, the cells were incubated with serum-free DMEM containing unlabeled HDL3 (40 μg/ml) or RAP (1 μM) for 0.5 hour at 37° C., 5% CO2. DiI-HDL (1 μg/ml) in serum-free DMEM or in serum-free DMEM containing unlabeled HDL3 (40 μg/ml) or RAP (1 μM) was then incubated with the cells for 2-4 hours at 37° C., 5% CO2. The cells were washed three times with Dulbecco's phosphate buffered saline (dPBS), fixed in 3% formaldehyde in dPBS for 20 minutes at room temperature. […]
Cells were plated into gelatin-coated wells of plastic chamber slides (Nalge Nunc, Naperville, Ill.) (4×10^4 cells/cm^2) and incubated at 37° C., 5% CO2 for 2 h. […] The cells were washed with dPBS, fixed in 3% formaldehyde in dPBS for 20 min at 25° C. and analyzed using a BiORad MRC1024 laser scanning confocal microscope.

[2] = test system: RA/Bt2cAMP-treated F9 cells; assay: DiI-HDL uptake by fluorescence-activated cell (FAC) scanning; format: cell-based, mouse; conditions: DiI-HDL 1 μg/ml, 37° C.; competitors preincubated; apolipoproteins and RAP 1 μM, apoE 0.25 μM, heparin 80 μM, IgGs 200 μg/ml, heparinase I 10 U/ml
Experimental: Untreated and RA/Bt2cAMP-treated F9 cells (1-1.5×10^5 cells/cm^2) were grown for 18 hours in serum-free medium (DMEM, ITS, penicillin, and streptomycin). After washing the cell layers with the same serum-free medium, apoE-free DiI-HDL was added to a final concentration of 1 μg/ml and incubated for 1-2 hours at 37° C., 5% CO2. For competition experiments, competitors were added in serum-free medium and incubated for 0.5 hours at 37° C., 5% CO2 prior to the addition of the DiI-HDL. After the incubation, the medium was removed, cell layers washed with serum-free medium and the cells released with a 0.5 mg/ml trypsin-0.53 mM EDTA solution (Mediatech). The cells were then pelleted by centrifugation at 180×g and resuspended in DMEM. Twice more, the cells were pelleted by centrifugation at 180×g, and resuspended in dPBS. The cells were then subjected to FAC sorting on a FACStarplus instrument (Becton Dickinson, San Jose, Calif.).
RA/Bt2cAMP-treated and -untreated F9 cells (1-1.5×10^5 cclls/cm^2) were grown for 18 h in SFM. After washing the cell layers with SFM, DiI-HDL or DIO-LDL was added to a final concentration of 1 μg/ml and incubated for 2 h at 37° C., 5% CO2. For competition experiments, competitors (HDL, HDL2, HDL3 and their corresponding apoE-free forms), LDL, oxidized LDL, VLDL, §-VLDL, Lp(a) ([…]), apoA-I (28.3 μg/ml, 1 μM), apoA-II (I 7.3 μg/ml, 1 μM), apoC-I (6.6 μg/ml, 1 μM), apoC-III (8.8 μg/ml, 1 μM), apoJ (70 μg/ml, 1 μM), ovalbumin (45 μg/ml, 1 μM), RAP (39 μg/ml, 1 μM), apoE (8.5 μg/ml, 0.25 μM), heparin (80 μM, 250 U/ml) or IgGs (200 μg/ml) were added in SFM and incubated for 45 min at 37° C., 5% CO2 prior to the addition of the fluorescent lipoproteins. After the incubation, the medium was removed, cell layers were washed with SFM and the cells were released with trypsin-EDTA-proteinase K. The cells were washed once with DMEM, twice with dPBS, then subjected to FAC scanning on a FACStar Plus instrument (Becton Dickinson, San Jose, Calif.). Plotted data are from gated cells having fluorescence intensity values greater than the autofluorescence values of 99% of unlabeled cells. For some experiments, cell layers were treated with hepaninase I (10 U/ml) for 2 h prior to the addition of the DiI-HDL.

B1: RAP: 39 kDa chaperone protein that inhibits ligand binding to LDLR family members; recombinant human RAP (protein, UniProt P30533 35-357, looked up)
Alpha-2-macroglobulin …: YSREKNQPKPSPKRESGEEFRMEKLNQLWEKAQRLHLPPVRLAELHADLKIQERDELAWKKLKLDGLDEDGEKEARLIRNLNVILAKYGLDGKKDARQVTSNSLSGTQEDGLDDPRLEKLWHKAKTSGKFSGEELDKLWREFLHHKEKVHEYNVLLETLSRTEEIHENVISPSDLSDIKGSVLHSRHTELKEKLRSINQGLDRLRRVSHQGYSTEAEFEEPRVIDLWDLAQSANLTDKELEAFREELKHFEAKIEKHNHYQKQLEIAHEKLRHAESVGDGERVSRSREKHALLEGRTKELGYTVKKHLQDLSGRISRARHNEL
uptake of DiI-HDL (cell staining) [1]: completely blocked | DiI-HDL uptake in presence of competitor [2]: could be blocked; also recorded: completely blocked
